Laboratory results as given in patent US8318206.

Key:
[1] = molecular target: T1, Fmoc-Gly-Phe-Cys-NH2 (peptide 1)
T1 chain: GFC

[2] = molecular target: T2, Fmoc-Gly-d-Phe-d-Cys (peptide 2) (not fully specified)
T2 chain: GFC

B1: thermolysin from B. thermoproteolyticus Rokko (protein)
chain: ITGTSTVGVGRGVLGDQKNINTTYSTYYYLQDNTRGNGIFTYDAKYRTTLPGSLWADADNQFFASYDAPAVDAHYYAGVTYDYYKNVHNRLSYDGNNAAIRSSVHYSQGYNNAFWNGSQMVYGDGDGQTFIPLSGGIDVVAHELTHAVTDYTAGLIYQNESGAINEAISDIFGTLVEFYANKNPDWEIGEDVYTPGISGDSLRSMSDPAKYGDPDHYSKRYTGTQDNGGVHINSGIINKAAYLISQGGTHYGVSVVGIGRDKLGKIFYRALTQYLTPTSNFSQLRAAAVQSATDLYGSTSQEVASVKQAFDAVGVK
HPLC of the supernatant after thermolysin treatment (cleaved fragment) [1]: HPLC of the supernatant detected the presence of Fmoc-Gly only
shift in the plasmon resonance peak (UV-visible spectra), 6 h after addition of 7.2 nM thermolysin [1]: a clear shift in the plasmon resonance peak from 565 nm to 532 nm 6 h after addition of 7.2 nM thermolysin
Δ ratio A/D over a period of 47 h, 7.2 nM thermolysin [1]: The Δ ratio A/D increases over a period of 47 h for 7.2 nM and 2.08 zM, to 96.5% and 25.2% respectively
Δ ratio A/D over a period of 47 h, 2.08 zM thermolysin [1]: The Δ ratio A/D increases over a period of 47 h for 7.2 nM and 2.08 zM, to 96.5% and 25.2% respectively
dispersion of nanoparticle aggregate [2]: nanoparticles functionalised with Fmoc-Gly-d-Phe-d-Cys did not disperse upon introduction of thermolysin
